PMC12148432, “Discovery and biochemical characterization of the D-aspartyl endopeptidase activity of the serine protease LACTB [drawing 1]” (The Journal of Biological Chemistry, 2025)

Substrate: Cc1cc(=O)oc2cc(NC(=O)[C@@H](CC(=O)O)NC(=O)CCC(=O)O)ccc12
Experiment: AMC fluorescence, kinetic plate-reader assay, initial rates
Assay type: biochemical, Homo sapiens
Conditions: pH 8.0, 30 °C, Tris-HCl, 150 mM NaCl

B1: 6His-SUMO1-hLACTB (97–547) (hLACTB WT) (Homo sapiens) (protein)
chain: APPCSRCFARAIESSRDLLHRIKDEVGAPGIVVGVSVDGKEVWSEGLGYADVENRVPCKPETVMRIASISKSLTMVALAKLWEAGKLDLDIPVQHYVPEFPEKEYEGEKVSVTTRLLISHLSGIRHYEKDIKKVKEEKAYKALKMMKENVAFEQEKEGKSNEKNDFTKFKTEQENEAKCRNSKPGKKKNDFEQGELYLREKFENSIESLRLFKNDPLFFKPGSQFLYSTFGYTLLAAIVERASGCKYLDYMQKIFHDLDMLTTVQEENEPVIYNRARFYVYNKKKRLVNTPYVDNSYKWAGGGFLSTVGDLLKFGNAMLYGYQVGLFKNSNENLLPGYLKPETMVMMWTPVPNTEMSWDKEGKYAMAWGVVERKQTYGSCRKQRHYASHTGGAVGASSVLLVLPEELDTETINNKVPPRGIIVSIICNMQSVGLNSTALKIALEFDKDRSD
notes: residues 97-547 (putative catalytic domain), N-terminal 6His-SUMO1 fusion kept, expressed in Escherichia coli, Ni-NTA and size-exclusion purified
  Km: 25.3 ± 2.7 µM
  kcat: 6.02 ± 0.12 s⁻¹
